Article PMC7901536 (Arteriosclerosis, thrombosis, and vascular biology, 2021)

T1: dimeric GPVI (GPVI extracellular domain fused by IgG-Fc), Q9HCN6
T1 chain: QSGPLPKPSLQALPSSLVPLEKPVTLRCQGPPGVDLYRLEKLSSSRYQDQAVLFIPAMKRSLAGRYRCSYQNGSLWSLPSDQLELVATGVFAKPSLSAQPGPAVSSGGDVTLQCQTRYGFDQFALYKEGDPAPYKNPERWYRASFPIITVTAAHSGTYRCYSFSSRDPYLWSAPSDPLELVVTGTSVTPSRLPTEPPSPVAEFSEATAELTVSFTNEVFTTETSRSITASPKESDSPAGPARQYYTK

T2: monomeric GPVI (His-tagged GPVI extracellular domain), Q9HCN6
T2 chain: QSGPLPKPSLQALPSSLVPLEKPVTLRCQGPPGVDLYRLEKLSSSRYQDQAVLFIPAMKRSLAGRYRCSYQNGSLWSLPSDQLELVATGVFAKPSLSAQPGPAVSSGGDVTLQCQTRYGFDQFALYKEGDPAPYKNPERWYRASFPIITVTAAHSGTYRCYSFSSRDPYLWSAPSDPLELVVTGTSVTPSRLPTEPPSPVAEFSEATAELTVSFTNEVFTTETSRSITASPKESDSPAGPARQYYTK

T3: dimeric GPVI (GPVI extracellular domain fused by IgG-Fc) (UniProt Q9HCN6 21-267, FITC label (in MST); biotin via NHS-LC-biotin (when immobilised in SPR))
T3 sequence (looked up): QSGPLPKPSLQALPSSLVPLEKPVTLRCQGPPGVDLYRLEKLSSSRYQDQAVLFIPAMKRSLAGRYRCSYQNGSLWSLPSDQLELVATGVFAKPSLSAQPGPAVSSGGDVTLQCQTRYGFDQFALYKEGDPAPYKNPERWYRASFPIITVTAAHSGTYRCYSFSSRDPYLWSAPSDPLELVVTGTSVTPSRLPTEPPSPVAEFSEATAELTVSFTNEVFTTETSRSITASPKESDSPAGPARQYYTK


How the values were obtained:
[1] = molecular target: non-polymerising (NP) fibrin (UniProt P02671); assay: SPR; NP-fibrinogen immobilised, then converted to fibrin with thrombin; GPVI dimer as analyte (additional SPR experiments in the supplemental methods)
[2] = molecular target: recombinant non-polymerising (NP) fibrinogen (UniProt P02671); assay: as above
[3] = molecular target: recombinant fibrinogen αC fragment, C-terminal globular domain (Aα 368-610); assay: SPR; biotinylated αC fragments Aα 221-391 (80 RU), 368-610 (120 RU), 221-610 (180 RU) on SA chip; dimeric GPVI as analyte up to 20 μM; 25 °C; 1:1 Langmuir
[4] = molecular target: recombinant fibrinogen αC fragment, full-length (Aα 221-610); assay: as above
[5] = molecular target: dimeric GPVI (GPVI extracellular domain fused by IgG-Fc) (UniProt Q9HCN6); assay: MST; CRP-XL titrated into FITC-labelled GPVI monomer or dimer; read-out is the fall of the initial fluorescence (quenching); 1:1 model; hypothetical KD on the monomeric-equivalent molar concentration of CRP-XL
[6] = molecular target: monomeric GPVI (His-tagged GPVI extracellular domain) (UniProt Q9HCN6); assay: as above
[7] = molecular target: T1, dimeric GPVI (GPVI extracellular domain …); assay: MST; fibrin(ogen) or fragments titrated into FITC-labelled GPVI monomer or dimer (10 μl of 50 nM mixed 1:1); 20 mM HEPES pH 7.5, 50 mM NaCl; 23 °C; 1:1 model
[8] = molecular target: T2, monomeric GPVI (His-tagged GPVI …); assay: SPR; monomeric and dimeric GPVI immobilised as ligands; X-, D-, E-fragment or D-dimer as analytes up to 40 μM; 1:1 Langmuir
[9] = molecular target: T1, dimeric GPVI (GPVI extracellular domain …); assay: as above
[10] = molecular target: T3, dimeric GPVI (GPVI extracellular domain …); assay: as above; conditions: both partners purified
[11] = molecular target: T3, dimeric GPVI (GPVI extracellular domain …); assay: MST; fibrin(ogen) or fragments titrated into FITC-labelled GPVI monomer or dimer (10 μl of 50 nM mixed 1:1); 20 mM HEPES pH 7.5, 50 mM NaCl; 23 °C; 1:1 model; conditions: both partners purified

Kd [7] | Kd [9] | Kd [10] | Kd [11] | Molecule | also measured
– | – | – | – | dimeric GPVI (GPVI extracellular domain fused by IgG-Fc) (from UniProt Q9HCN6 21-267) (Fc fusion) | Kd [1]: 0.086 µM; Kd [2]: 0.127 µM; Kd [3]: 2.3 µM; Kd [4]: 0.604 µM
– | – | – | – | cross linked collagen-related peptide (CRP-XL) | Kd [5]: 0.603 µM; Kd [6]: 5 µM
> 2 µM | 9 µM | – | – | fibrinogen X-fragment (domain or fragment, modifications not checked) chain 1: ADSGEGDFLAEGGGVRGPRVVERHQSACKDSDWPFCSDEDWNYKCPSGCRMKGLIDEVNQDFTNRINKLKNSLFEYQKNNKDSHSLTTNIMEILRGDFSSANNRDNTYNRVSEDLRSRIEVLKRKVIEKVQHIQLLQKNVRAQLVDMKRLEVDIDIKIRSCRGSCSRALAREVDLKDYEDQQKQLEQVIAKDLLPSRDRQHLPLIKMKPVPDLVPGNFK chain 2: QGVNDNEEGFFSARGHRPLDKKREEAPSLRPAPPPISGGGYRARPAKAAATQKKVERKAPDAGGCLHADPDLGVLCPTGCQLQEALLQQERPIRNSVDELNNNVEAVSQTSSSSFQYMYLLKDLWQKRQKQVKDNENVVNEYSSELEKHQLYIDETVNSNIPTNLRVLRSILENLRSKIQKLESDVSAQMEYCRTPCTVSCNIPVVSGKECEEIIRKGGETSEMYLIQPDSSVKPYRVYCDMNTENGGWTVIQNRQDGSVDFGRKWDPYKQGFGNVATNTDGKNYCGLPGEYWLGNDKISQLTRMGPTELLIEMEDWKGDKVKAHYGGFTVQNEANKYQISVNKYRGTAGNALMDGASQLMGENRTMTIHNGMFFSTYDRDNDGWLTSDPRKQCSKEDGGGWWYNRCHAANPNGRYYWGGQYTWDMAKHGTDDGVVWMNWKGSWYSMRKMSMKIRPFFPQQ chain 3: YVATRDNCCILDERFGSYCPTTCGIADFLSTYQTKVDKDLQSLEDILHQVENKTSEVKQLIKAIQLTYNPDESSKPNMIDAATLKSRKMLEEIMKYEASILTHDSSIRYLQEIYNSNNQKIVNLKEKVAQLEAQCQEPCKDTVQIHDITGKDCQDIANKGAKQSGLYFIKPLKANQQFLVYCEIDGSGNGWTVFQKRLDGSVDFKKNWIQYKEGFGHLSPTGTTEFWLGNEKIHLISTQSAIPYALRVELEDWNGRTSTADYAMFKVGPEADKYRLTYAYFAGGDAGDAFDGFDFGDDPSDKFFTSHNGMQFSTWDNDNDKFEGNCAEQDGSGWWMNKCHAGHLNGVYYQGGTYSKASTPNGYDNGIIWATWKTRWYSMKKTTMKIIPFNRLTIGEGQQHHLGGAK | Kd [8]: > 1000 µM
– | – | 51 µM | > 20 µM | fibrinogen E-fragment (domain or fragment) chain 1: VVERHQSACKDSDWPFCSDEDWNYKCPSGCRMKGLIDEVNQDFTNRINKLKNSLFEYQK chain 2: KVERKAPDAGGCLHADPDLGVLCPTGCQLQEALLQQERPIRNSVDELNNNVEAVSQTSSSSFQYMYLLK chain 3: YVATRDNCCILDERFGSYCPTTCGIADFLSTYQTKVDKDLQSLEDILHQVENK | –
> 20 µM | 26 µM | – | – | fibrinogen D-fragment (domain or fragment, modifications not checked) chain 1: VSEDLRSRIEVLKRKVIEKVQHIQLLQKNVRAQLVDMKRLEVDIDIKIRSCRGSCSRALAREVDLKDYEDQQKQLEQVIAKDLLPSR chain 2: DNENVVNEYSSELEKHQLYIDETVNSNIPTNLRVLRSILENLRSKIQKLESDVSAQMEYCRTPCTVSCNIPVVSGKECEEIIRKGGETSEMYLIQPDSSVKPYRVYCDMNTENGGWTVIQNRQDGSVDFGRKWDPYKQGFGNVATNTDGKNYCGLPGEYWLGNDKISQLTRMGPTELLIEMEDWKGDKVKAHYGGFTVQNEANKYQISVNKYRGTAGNALMDGASQLMGENRTMTIHNGMFFSTYDRDNDGWLTSDPRKQCSKEDGGGWWYNRCHAANPNGRYYWGGQYTWDMAKHGTDDGVVWMNWKGSWYSMRKMSMKIRPFFPQQ chain 3: KMLEEIMKYEASILTHDSSIRYLQEIYNSNNQKIVNLKEKVAQLEAQCQEPCKDTVQIHDITGKDCQDIANKGAKQSGLYFIKPLKANQQFLVYCEIDGSGNGWTVFQKRLDGSVDFKKNWIQYKEGFGHLSPTGTTEFWLGNEKIHLISTQSAIPYALRVELEDWNGRTSTADYAMFKVGPEADKYRLTYAYFAGGDAGDAFDGFDFGDDPSDKFFTSHNGMQFSTWDNDNDKFEGNCAEQDGSGWWMNKCHAGHLNGVYYQGGTYSKASTPNGYDNGIIWATWKTRWYSMKKTTMKIIPFNRLTIGEGQQHHLGGAK | –
– | – | 28 µM | > 20 µM | D-dimer (degradation product of FXIIIa cross-linked fibrin) (domain or fragment, cross-linked by FXIIIa (chain and residues not stated)) chain 1: VSEDLRSRIEVLKRKVIEKVQHIQLLQKNVRAQLVDMKRLEVDIDIKIRSCRGSCSRALAREVDLKDYEDQQKQLEQVIAKDLLPSR chain 2: DNENVVNEYSSELEKHQLYIDETVNSNIPTNLRVLRSILENLRSKIQKLESDVSAQMEYCRTPCTVSCNIPVVSGKECEEIIRKGGETSEMYLIQPDSSVKPYRVYCDMNTENGGWTVIQNRQDGSVDFGRKWDPYKQGFGNVATNTDGKNYCGLPGEYWLGNDKISQLTRMGPTELLIEMEDWKGDKVKAHYGGFTVQNEANKYQISVNKYRGTAGNALMDGASQLMGENRTMTIHNGMFFSTYDRDNDGWLTSDPRKQCSKEDGGGWWYNRCHAANPNGRYYWGGQYTWDMAKHGTDDGVVWMNWKGSWYSMRKMSMKIRPFFPQQ chain 3: KMLEEIMKYEASILTHDSSIRYLQEIYNSNNQKIVNLKEKVAQLEAQCQEPCKDTVQIHDITGKDCQDIANKGAKQSGLYFIKPLKANQQFLVYCEIDGSGNGWTVFQKRLDGSVDFKKNWIQYKEGFGHLSPTGTTEFWLGNEKIHLISTQSAIPYALRVELEDWNGRTSTADYAMFKVGPEADKYRLTYAYFAGGDAGDAFDGFDFGDDPSDKFFTSHNGMQFSTWDNDNDKFEGNCAEQDGSGWWMNKCHAGHLNGVYYQGGTYSKASTPNGYDNGIIWATWKTRWYSMKKTTMKIIPFNRLTIGEGQQHHLGGAK | –
